The values that follow come from US20140127211A1 (Pfizer, published 2014).

The target in assay [1] is T1, human Notch3 NRR recombinant protein (Notch3 NRR_Avi_His tag) (human).
T1 construct: Purified from CHO-PACE cells; the entry includes the C-terminal Avi and His6 tag
T1 chain: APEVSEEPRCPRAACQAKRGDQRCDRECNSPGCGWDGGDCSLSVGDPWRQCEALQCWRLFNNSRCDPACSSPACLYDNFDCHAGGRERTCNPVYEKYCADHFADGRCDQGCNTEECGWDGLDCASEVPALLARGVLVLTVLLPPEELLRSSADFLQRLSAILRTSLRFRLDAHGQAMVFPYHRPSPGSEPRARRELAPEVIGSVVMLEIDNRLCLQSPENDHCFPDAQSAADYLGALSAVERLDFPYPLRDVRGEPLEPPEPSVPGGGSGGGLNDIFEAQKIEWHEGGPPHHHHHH
Nature of the assay: ELISA, recombinant protein, hybridoma supernatant.

The target of assay [2] is T2, full-length mouse Notch3 expressed on the cell surface (mouse, UniProt Q61982 40-2318).
T2 construct: whole, on cells; Over-expressed on U-2 OS cells; also called U2OS/mNotch3
The experiment in a line: cell-based ELISA, U-2 OS cells over-expressing mouse Notch3.

T2 sequence (Q61982 40-2318): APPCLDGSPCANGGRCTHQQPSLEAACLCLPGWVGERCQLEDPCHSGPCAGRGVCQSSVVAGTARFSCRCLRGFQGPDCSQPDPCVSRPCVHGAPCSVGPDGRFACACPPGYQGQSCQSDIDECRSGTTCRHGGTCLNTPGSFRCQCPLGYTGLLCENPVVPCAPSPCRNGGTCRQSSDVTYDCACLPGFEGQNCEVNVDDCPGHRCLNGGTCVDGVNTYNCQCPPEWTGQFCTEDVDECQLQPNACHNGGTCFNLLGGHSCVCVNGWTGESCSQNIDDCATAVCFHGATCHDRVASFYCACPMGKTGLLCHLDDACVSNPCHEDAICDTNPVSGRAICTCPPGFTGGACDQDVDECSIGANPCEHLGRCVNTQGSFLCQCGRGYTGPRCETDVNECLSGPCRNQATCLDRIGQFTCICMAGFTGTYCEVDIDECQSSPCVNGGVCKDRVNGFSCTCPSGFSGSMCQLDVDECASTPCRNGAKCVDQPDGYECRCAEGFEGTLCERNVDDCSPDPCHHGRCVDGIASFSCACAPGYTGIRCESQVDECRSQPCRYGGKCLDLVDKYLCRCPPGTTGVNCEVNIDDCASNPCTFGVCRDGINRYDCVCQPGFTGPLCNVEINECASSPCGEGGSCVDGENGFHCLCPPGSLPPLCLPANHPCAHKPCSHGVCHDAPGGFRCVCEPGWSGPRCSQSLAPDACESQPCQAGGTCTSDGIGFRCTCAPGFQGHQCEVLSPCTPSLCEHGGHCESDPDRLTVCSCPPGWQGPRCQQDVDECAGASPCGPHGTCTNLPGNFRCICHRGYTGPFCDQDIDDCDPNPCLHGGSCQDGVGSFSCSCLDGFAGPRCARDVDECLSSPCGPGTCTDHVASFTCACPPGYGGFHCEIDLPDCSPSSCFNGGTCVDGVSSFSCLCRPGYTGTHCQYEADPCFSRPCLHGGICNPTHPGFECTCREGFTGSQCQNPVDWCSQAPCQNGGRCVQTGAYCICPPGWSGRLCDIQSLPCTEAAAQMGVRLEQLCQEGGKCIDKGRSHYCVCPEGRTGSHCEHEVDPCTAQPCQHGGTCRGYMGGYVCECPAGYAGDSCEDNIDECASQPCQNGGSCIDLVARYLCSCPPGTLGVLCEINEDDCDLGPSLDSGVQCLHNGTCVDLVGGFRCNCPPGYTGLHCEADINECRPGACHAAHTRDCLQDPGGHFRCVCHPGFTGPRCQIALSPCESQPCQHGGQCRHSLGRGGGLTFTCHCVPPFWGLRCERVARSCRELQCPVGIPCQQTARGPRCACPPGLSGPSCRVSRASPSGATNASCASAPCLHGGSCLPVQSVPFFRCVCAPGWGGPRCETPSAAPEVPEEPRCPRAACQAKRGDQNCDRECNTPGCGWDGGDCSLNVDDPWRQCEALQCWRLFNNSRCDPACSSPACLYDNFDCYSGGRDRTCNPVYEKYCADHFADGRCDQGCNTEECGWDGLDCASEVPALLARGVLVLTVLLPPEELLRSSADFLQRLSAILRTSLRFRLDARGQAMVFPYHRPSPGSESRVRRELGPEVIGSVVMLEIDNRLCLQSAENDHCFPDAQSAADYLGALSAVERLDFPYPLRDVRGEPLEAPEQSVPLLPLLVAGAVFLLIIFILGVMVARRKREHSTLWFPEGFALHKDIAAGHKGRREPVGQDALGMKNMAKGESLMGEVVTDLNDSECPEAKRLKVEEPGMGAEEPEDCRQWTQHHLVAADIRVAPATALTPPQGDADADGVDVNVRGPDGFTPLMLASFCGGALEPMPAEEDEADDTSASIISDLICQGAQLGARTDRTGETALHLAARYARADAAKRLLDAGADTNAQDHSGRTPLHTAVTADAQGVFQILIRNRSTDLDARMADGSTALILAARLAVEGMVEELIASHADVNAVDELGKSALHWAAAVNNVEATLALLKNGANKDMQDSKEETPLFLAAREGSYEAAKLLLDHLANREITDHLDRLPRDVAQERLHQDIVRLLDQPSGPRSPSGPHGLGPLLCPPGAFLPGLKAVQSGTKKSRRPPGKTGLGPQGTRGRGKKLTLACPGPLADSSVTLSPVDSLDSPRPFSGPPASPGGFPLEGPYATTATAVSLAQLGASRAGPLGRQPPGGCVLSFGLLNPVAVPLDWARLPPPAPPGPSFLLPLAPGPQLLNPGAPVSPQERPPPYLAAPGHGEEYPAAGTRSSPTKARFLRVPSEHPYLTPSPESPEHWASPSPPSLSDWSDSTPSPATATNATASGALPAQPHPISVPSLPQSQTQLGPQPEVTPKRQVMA

B1: parental rat clone 75 (r75) (antibody, V domains shown)
VH: QVKLLQSGAALVKPGASVKMSCKASGYAFTDYWVTWVKQSHGKSLEWIGEISPNSGGTNFNEKFKGKATLTVDKSTSTAYMELSRLTSEDSAIYYCTRGEIRYNWFAYWGQGTLVTVSS
VL: NIVMTQSPKSMSISVGDRVTMNCKASQNVGNNIAWYQQKPGQSPKLLIYYASNRYTGVPDRFTGGGYGTDFTLTINSMQAEDAAFYYCQRLYNSPFTFGSGTKLEIK
notes: Rat monoclonal antibody from hybridoma, tested as hybridoma supernatant
With B1, the “O.D. 450 nM” value in assay [1] was no less than 1 O.D. 450 nM. In addition, in assay [2], the binding result is “no binding”.
